The assay concerns the target T1, TnMUC1 in whole cell lysates of DU145 prostate cancer cells (single band of >200 kDa) (UniProt P15941 24-1255, limits assumed, Tn glycoform of MUC1 (aberrant O-glycosylation); sites not stated).
T1 construct: mature; also called mature TnMUC1
The assay can be described thus: Western blot on whole cell lysates of the prostate cancer cell line DU145. (In general: Immunoblotting shows a protein as a band on a membrane.)

T1 sequence (P15941 24-1255 limits assumed): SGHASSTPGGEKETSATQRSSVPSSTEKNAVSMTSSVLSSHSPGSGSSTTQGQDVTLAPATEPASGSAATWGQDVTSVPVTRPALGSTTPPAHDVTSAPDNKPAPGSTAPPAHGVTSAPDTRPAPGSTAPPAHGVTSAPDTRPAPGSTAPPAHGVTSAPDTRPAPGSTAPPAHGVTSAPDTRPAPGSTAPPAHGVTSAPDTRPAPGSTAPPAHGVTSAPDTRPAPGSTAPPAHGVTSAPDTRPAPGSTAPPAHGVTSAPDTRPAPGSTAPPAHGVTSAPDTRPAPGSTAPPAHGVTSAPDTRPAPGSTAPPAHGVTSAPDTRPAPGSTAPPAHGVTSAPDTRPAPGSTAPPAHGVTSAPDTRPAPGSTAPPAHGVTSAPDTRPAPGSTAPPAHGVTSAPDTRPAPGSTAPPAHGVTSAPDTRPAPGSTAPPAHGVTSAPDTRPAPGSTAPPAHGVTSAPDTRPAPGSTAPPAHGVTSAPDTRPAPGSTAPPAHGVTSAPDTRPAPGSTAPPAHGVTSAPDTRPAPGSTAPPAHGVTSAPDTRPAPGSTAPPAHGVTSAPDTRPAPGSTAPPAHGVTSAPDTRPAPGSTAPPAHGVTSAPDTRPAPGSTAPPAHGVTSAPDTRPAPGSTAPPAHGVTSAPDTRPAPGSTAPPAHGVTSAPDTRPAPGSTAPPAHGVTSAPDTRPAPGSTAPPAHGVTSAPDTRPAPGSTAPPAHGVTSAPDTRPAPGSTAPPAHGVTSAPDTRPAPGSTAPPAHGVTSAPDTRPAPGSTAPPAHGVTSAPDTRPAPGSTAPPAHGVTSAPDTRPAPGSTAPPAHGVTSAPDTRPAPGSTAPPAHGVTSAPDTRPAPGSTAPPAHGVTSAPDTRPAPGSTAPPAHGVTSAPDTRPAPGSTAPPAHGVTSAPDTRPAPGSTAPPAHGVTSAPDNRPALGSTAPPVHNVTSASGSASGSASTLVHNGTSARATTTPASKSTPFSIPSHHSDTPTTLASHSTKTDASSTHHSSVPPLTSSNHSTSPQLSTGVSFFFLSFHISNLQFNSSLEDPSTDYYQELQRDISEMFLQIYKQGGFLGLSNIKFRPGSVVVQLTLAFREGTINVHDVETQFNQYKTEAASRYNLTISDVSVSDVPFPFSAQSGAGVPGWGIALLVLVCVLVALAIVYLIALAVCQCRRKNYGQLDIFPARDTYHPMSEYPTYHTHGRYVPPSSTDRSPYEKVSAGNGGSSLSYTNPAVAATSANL

B1: Anti-TnMUC1 murine monoclonal antibody clone 5E5 (antibody, V domains shown)
VH: QVQLQQSDAELVKPGSSVKISCKASGYTFTDHAIHWVKQKPEQGLEWIGHFSPGNTDIKYNDKFKGKATLTVDRSSSTAYMQLNSLTSEDSAVYFCKTSTFFFDYWGQGTTLTVSS
VL: ELVMTQSPSSLTVTAGEKVTMICKSSQSLLNSGDQKNYLTWYQQKPGQPPKLLIFWASTRESGVPDRFTGSGSGTDFTLTISSVQAEDLAVYYCQNDYSYPLTFGAGTKLELK
notes: also called 5E5 mAb; mAb 5E5
On to B1, for which the binding result is on record as “binds”.
